From patent publication US20240209089A1 (SUZHOU SMARTNUCLIDE BIOPHARMACEUTICAL, published 2024)
Positions count from the first letter of the chain named.

B1: ^125I-SNA006a (VHH)
VHH: QLQLVESGGGLVQAGGSLRLSCAASGLTFEDYAIGWFRQAPGKEREGISCIRIYDGNTYSAESVKGRFTISSDNAKNQVYLQINTLKPEDTAVYYCAAGSYYSCSVYPDYDMDYWGKGTLVTVSS
modifications: 125I label by the chloramine T method; labelled residues not stated
B2: ^125I-SNA006d (VHH)
VHH: QVQLVESGGGLVQAGGSLRVSCAASGGTFSSTAMGWFRQAPGKEREFVAAISWSGGYTYYADSVRGRFTISRDNALNTVSLQMNSLKPEDTAVYYCAADISGLDTVAAGIFTEPNIDYWGKGTLVTVSS
modifications: 125I label by the chloramine T method; labelled residues not stated
B3: C42-cHis antibody (VHH)
VHH: B1 VHH with L2V
notes: HEK293 construct; an E. coli preparation is also described; Biotinylated for the ForteBio assay; also called SNA006b; SNA006-b
B4: S13-cHis antibody (VHH)
VHH: QLQLVESGGGLVQPGGSLRLSCVVSGSIFAINTMGWYRQAPGKQRELVATMHSYGSTNYADSVKGRFTISRDNAKKTVYLQMNSLKPADTAVYYCHADDTGWGTVDSWGQGTQVTVSS
notes: HEK293 construct; an E. coli preparation is also described
B5: C24-cHis antibody (VHH)
VHH: B4 VHH with L2V, V23A, V24A, S27P, A30S, Y54T, A88D, A97V, T112I
notes: as for B4
B6: C27-cHis antibody (VHH)
VHH: B4 VHH with Y54G, N73A, K75P, T100S, T112I
notes: as for B4
B7: C29-cHis antibody (VHH)
VHH: QVQLVESGGGLVQAGGSLRLSCVASGFTSDDYVIGWFRQAPGKEREGVSCISSSDGTTNYADSVKGRFTISSDNAKNTVYLQMNSLKPEDTAVYYCAADPMRVCPYSGTYYGILGFGTSGQGTQVTVSS
notes: as for B4
B8: S36-cHis antibody (VHH)
VHH: QVQLVESGGGLVQAGGSLRLSCAASIRTFSDYAMAWFRQGPRKEREFVAAISWNGVTTFYADSVKGRFTISRDDAKNSVYLQMNSLKPEDTAVYYCAGGLNVGWGTHEREYDDWGQGTQVTVSS
notes: as for B4
B9: phage clone No. 66 (S18) (VHH)
VHH: QLQLVESGGGLVQPGGSLRLSCAASGSIFSINTMGWYRQAPGKQRELVATMTSHGSTNYADSVKGRFTISRDNSKNTVYLQMNSLKLQDTAVYYCNANDMGWGTVDAWGQGTLVTVSS
B10: phage clone No. 42 (C42) (VHH)
VHH: B1 VHH with L2V
B11: phage clone No. 2 (C2) (VHH)
VHH: B1 VHH with L2V, A14P, L27F, F29L, E30D, D31Y
B12: phage clone No. 37 (C37) (VHH)
VHH: B1 VHH
B13: phage clone No. 29 (C29) (VHH)
VHH: B7 VHH
B14: phage clone No. 46 (C46) (VHH)
VHH: QVQLVESGGGLVQAGGSLRLSCAASGVTFDDLAIGWFRQVPGKGREGVSTIGTSDGTAYYADSVKGRFTISSDNAKNTVYLQMNSLKPEDTAVYYCAVDLDYGLGSLLPMGYDYWGQGTQVTVSS
B15: phage clone No. 53 (S5) (VHH)
VHH: B2 VHH
B16: phage clone No. 54 (S6) (VHH)
VHH: QVQLVESGGGLVQPGGSLRLSCAVSGTIFSINTMGWYRQVPGKQRELVATITSSGSTKYADSVKGRFTVSRDNAKRTVFLQMDSLKPEDTAVYYCHANDVGWGTVNAWGQGTLVTVSS
B17: phage clone No. 55 (S7) (VHH)
VHH: QLQLVESGGGLVQPGGSLRLSCAASGSIFSINGMGWYRQAPGKQREAVAVITSGGKIDYLDSVKGRFTISRDSAKNTVALQMNSLKPEDTAVYYCNAYGDVRRGEVRWGQGTQVTVSS
B18: phage clone No. 71 (S23) (VHH)
VHH: B17 VHH with L2V, A47L, V50A, I57T, R102Q
B19: phage clone No. 77 (S29) (VHH)
VHH: QLQLVESGGGLVQPGGSLRLSCTASGIIFSINTMGWYRQAPGKQRELVADISSFGSTNYADSVKGRFTISRDNAKNSVYLQMNSLKPEDTAVYYCNAHDKGWGTVDSWGQGTQVTVSS

molecular target: T1, human CD8α full-length protein (human, UniProt P01732 22-235); assay: radioligand saturation binding on MC38-CD8 cells, 4 °C, one-site fit
T1 construct: whole, on cells; The same entry is used for MC38-CD8α transfectants and for human CD8+ T cells from peripheral blood; the assay field says which cells; also called cell surface CD8α; MC38-CD8α cells
T1 sequence (P01732 22-235): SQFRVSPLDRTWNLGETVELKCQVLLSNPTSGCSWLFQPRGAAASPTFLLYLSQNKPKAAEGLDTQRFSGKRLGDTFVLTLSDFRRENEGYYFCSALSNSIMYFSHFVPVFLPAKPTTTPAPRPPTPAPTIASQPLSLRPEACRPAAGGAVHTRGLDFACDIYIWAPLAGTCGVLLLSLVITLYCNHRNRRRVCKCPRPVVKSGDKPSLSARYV
Experimental: Receptor binding reaction: a radioligand saturation method was used, total binding and non-specific binding groups were included.
The cells were incubated for 2 h at 4° C. After that, the supernatant was extracted, the cells were washed 6 times with PBS pre-cooled at 4° C., and 200 μL of PBS was added into each well every time. Finally, the filter membrane was collected, the radioactivity count of each tube of sample and standard sample was measured on the γ counter. Finally, saturation curve fitting was performed by using Prism 7.0 (GraphPad Software, Inc.) software according to the single-point binding model, and then KD and Bmax were calculated.

Binder	Kd [pM]
B1	460
B2	1500

molecular target: T2, CD8α-cHis fusion protein (UniProt P01732 22-182); assay: BLI (ForteBio Octet), biotinylated antibody on SA sensor, CD8α-chis 6.25-100 nM
T2 construct: not shown: C-terminal His tag
T2 sequence (P01732 22-182): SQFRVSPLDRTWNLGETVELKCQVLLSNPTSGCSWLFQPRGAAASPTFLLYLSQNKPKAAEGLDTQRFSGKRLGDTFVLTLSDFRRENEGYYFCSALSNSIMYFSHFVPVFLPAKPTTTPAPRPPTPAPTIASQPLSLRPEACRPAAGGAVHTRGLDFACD
Experimental: The anti-CD8α single domain antibody-biontin was fixed on an SA biological sensor. Then, CD8α-chis with a concentration of 6.25-100 nM bound to a nano antibody and then dissociated. The binding dynamic variables of four antibodies C37, C42, C46 and S5 were evaluated and determined by using Octet Data Analysis version 9.0, including Kon, Koff and Kd.

Binder	Kd [pM]	koff [s⁻¹]	kon [M⁻¹ s⁻¹]
B3	727	0.00042	578000

molecular target: T1, human CD8α full-length protein; assay: flow cytometry on MC38-CD8α cells, secondary antibody-PE
Experimental: Mouse colon cancer MC38 cell lines stable transfected with human CD8α full-length protein gene were constructed to obtain MC38 cells (MC38-CD8α cells) stably expressing human CD8α proteins on the cell membrane. Prior to use, the cells were cultured to >90% convergence. The anti-CD8α single domain antibody was used to perform flow cytometry on these cells for quantitative analysis of indirect immunofluorescence staining so as to determine the quantity of receptors on surface of each cell.
The cells were collected and suspended to a concentration of 2.5×10⁶ cells/mL. 200 μL of cell aliquot samples were mixed with 20 μL of primary antibody, and the obtained mixture was incubated for 30 min on ice. The cells were centrifuged, washed and re-suspended, then 5 μL of secondary antibody-PE conjugate was added, and then the above mixture was incubated for 30 minutes on ice. The cells were washed twice, re-suspended and underwent flow cytometry on BD FACSCelesta™. For each tube, at least 5×10⁴ events were collected. All the analyses were single colors, and PE was detected in […].

Binder	Positive rate (%)
B3	99.9
B4	96.3
B5	99.4
B6	93.6
B7	98.4
B8	99.7

molecular target: T3, CD8α-Fc fusion protein (human); assay: ELISA on coated CD8α-Fc, anti-his-HRP, four-parameter fit
T3 construct: also called CD8 α-Fc protein; CD8α-Fc tag antigen
T3 sequence (chain, as listed by the source): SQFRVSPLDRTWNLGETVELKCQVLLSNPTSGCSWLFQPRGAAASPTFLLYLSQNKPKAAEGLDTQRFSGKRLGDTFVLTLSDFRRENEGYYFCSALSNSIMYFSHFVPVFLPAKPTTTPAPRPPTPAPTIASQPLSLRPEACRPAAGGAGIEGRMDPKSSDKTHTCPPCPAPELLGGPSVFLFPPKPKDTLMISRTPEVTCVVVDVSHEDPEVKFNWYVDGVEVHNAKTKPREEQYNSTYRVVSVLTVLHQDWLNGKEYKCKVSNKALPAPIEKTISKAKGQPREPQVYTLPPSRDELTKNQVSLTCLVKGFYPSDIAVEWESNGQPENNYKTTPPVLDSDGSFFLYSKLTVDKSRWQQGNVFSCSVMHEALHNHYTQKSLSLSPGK
Experimental: (§1) The CD8 α-Fc protein was transiently expressed by HEK293 and purified by protein A affinity chromatography. The plate was coated with the obtained CD8α-Fc protein in a concentration of 0.5 μg/well at 4° C. overnight, and then the gradient dilution series of the obtained anti-CD8α single domain antibody protein was added to react for 1 hour at room temperature. After washing, anti-his horseradish peroxidase labeled antibody was added to react for 1 hour at room temperature. After washing, a chromogenic solution was added, and an absorption value at 450 nm was read. The data processing and plotting analysis were performed by using software SotfMaxPro v5.4. […] Of the 10 selected antibodies (see Table 5 for details), the relative activities of different anti-CD8α single domain antibodies were compared by using C2-cHis as control, so as to reflect the affinity of the antibodies on CD8α. Of the 10 tested antibodies, C37, C42, C46, S5 and S36 have relatively high binding activity.

Binder	EC50 [ng/mL]
B3	1.18
B4	2.89
B5	4.59
B6	2.28
B7	3.55
B8	1.42

molecular target: T3, CD8α-Fc fusion protein; assay: ELISA on coated CD8α-Fc, relative to C2-cHis control
Experimental: as §1

Binder	Relative activity (%)
B3	269
B4	142
B5	47.9
B6	96.4
B7	61.9
B8	289

molecular target: T3, CD8α-Fc fusion protein; assay: phage ELISA on coated CD8α-Fc
Experimental: After 3-4 rounds of panning, 96 clones were randomly picked from the plate subjected to the last round of panning for identification. 96 single colonies were randomly picked and respectively cultured to produce and purify phages. The plate was coated with CD8α-Fc fusion protein at 4° C. overnight, then blocked with 3% BSA, and reacted for 1 hour at 37° C. Subsequently, the phage supernatant obtained after infection was added into each well (the control group was blank phage), and incubated for 1 hour at 37° C. After PBST washing, horseradish peroxidase labeled anti-M13 secondary antibody (purchased from Beijing Yiqiao Shenzhou Biotechnology Co., Ltd.) was added, and reacted for 1 hour at room temperature. After washing, a tetramethylbenzidine (TMB) chromogenic solution was added and an absorption value at 450 nm was read. Meanwhile, the plate was coated with an Fc protein at 4° C. overnight, blocked with 3% BSA, and reacted for 1 hour at 37° C. After washing, the phage supernatant obtained after infection (the control group was blank phage) was added to react for 1 hour at 37° C. After washing, the horseradish peroxide labeled anti-M13 secondary antibody (purchased from Beijing Yiqiao Shenzhou Biotechnology Co., Ltd.) was added to react for 1 hour at room temperature. After that, a TMB chromogenic solution was added and an absorption value at 450 nm was read. Where, when a ratio obtained by an OD value being divided by an OD value of blank control was >=4, it was judged that a candidate antibody could bind the CD8α-Fc protein; meanwhile, a ratio obtained by the CD8α-Fc binding OD value of the above antibody capable of binding the CD8 α-Fc antigen protein being divided by the Fc protein binding OD value was >=5, it was considered that the candidate antibody could specifically bind the CD8α part rather than the Fc part. […] The bacteria in candidate clone well were transferred to an LB liquid culture medium containing 100 μg/mL ampicillin so as to perform plasmid extraction and sequencing.

Binder	OD450
B9	1.72
B10	3.18
B11	3.21
B12	3.2
B13	1.75
B14	2.35
B15	1.2
B16	1.3
B17	1.61
B18	1.62
B19	1.63
